“Also recorded” adds a separate entry of the source.
Experiments:
[1] = tested on: Akt kinase in human Schwann cells; assay: Immunodetection of activated Akt (Ser473) in Schwann cells
Protocol: Schwann cells, grown in 10% FCS to 70% confluency in 6-well plates, were switched to DMEM containing 0.1% FCS for 48 hours to reduce basal Akt phosphorylation. Then the cells were placed in serum-free DMEM medium for 2 hours and challenged with TS, CD or other test factors for predetermined periods of time. When the PI-3 kinase inhibitor LY294002 (Sigma) was used, the inhibitor was added to the serum-starved cells 30 minutes before challenge with TS or CD. Cell samples were lysed with lysis buffer (20 mM Tris, pH7.5, 150 mM NaCl, 1 mM EDTA, 1% Triton X-100 (t-Octylphenoxypolyethoxyethanol), 2.5 mM sodium pyrophosphate, 1 mM glycerophosphate, 1 mM Na3VO4, 1 μg/ml leupeptin and 1 mM Phenymethylsulfonyl fluoride (PMSF)). Samples (40 μg) were run on 10% SDS-Page, blotted to nitrocellulose paper and analyzed by Western (immuno) blot with monoclonal antibody specific for P-Ser473 of Akt (New England Biolabs). Reaction was visualized by chemiluminescence using the ECL kit (New England Nuclear).
Schwann cells were seeded in 10% FCS to 50-70% confluency in 10 cm Petri dishes 24 h prior transfection, performed in serum-free DMEM. Cells were maintained in 10% FCS for 24 hr and then switched to medium containing 700 μg/ml G418 (Gibco BRL) and 2% FCS for 3 days and 0.1% FCS for another 4 days with CD added to some cell monolayers. After this cells were assessed for viability by Trypan blue exclusion and by DAPI staining. At the same time cell lysates were analyzed for Akt phosphoryltion by Western (immuno) blots with monoclonal antibody specific for P-Ser473 of Akt (New England Biolabs). Reaction was visualized by chemiluminescence using the ECL kit (New England Nuclear).

[2] = tested on: PC12 cells; assay: Neurite outgrowth assay in PC12 cells; format: cell-based, rat
Source text: PC12 cells were obtained from ATCC (Manassas, Va. (Accession No. CRL-1721)) and cultured on collagen-coated dishes in RPMI 1640 supplemented with 10% horse serum and 5% fetal bovine serum (Greene, L. A. and Tishler, A. S., Proc. Natl. Acad. Sci. USA, 73: 2424-2428 (1976)). For differentiation and survival experiments, cells were washed three times in serum-free RPMI/0.2% BSA, plated in the same medium in collagen-coated plastic dishes at 2×10^5/ml, without and with growth factors, TS, recombinant proteins, synthetic peptides, for the time and concentrations indicated in the Figures.
96-well microtiter plates were coated overnight at 4° C. with the TS or peptides or fragments thereof, or with control proteins laminin (Ln) or bovine serum albumin (BSA) at 500 μg/ml. After removing the compounds, the plates were further incubated with 1% BSA for 1 hour at room temperature and immediately used as substratum for PC12 or N18 (Prasad, K. N., Biol Rev Camb Philos Soc, 66:431-451 (1991)) cells in serum-free RPMI/0.2% BSA. Neurite outgrowth was measured using a phase-contrast microscope 17 hours later.

[3] = tested on: Bcl-2 mRNA in PC12 cells; assay: RT-PCR of Bcl-2 gene transcripts in PC12 cells; format: cell-based, rat
Protocol: Total RNA was extracted from PC12 cells by the acid guanidinum isothiocyanate method (Chomchinski, P., et al., Biotechniques 15: 532-535 (1993)) using TRI-reagent (Molecular Research Center, Inc.). cDNA synthesis was performed according to the instruction of the manufacturer (Gibco-BRL). Reverse transcription reactions were carried out for 50 minutes at 42° C. and were heated to 70° C. for 15 minutes to terminate the reaction using a MiniCycler (MJ Research). Samples were cooled to 4° C. and stored at −20° C. until use.
PCR reactions were performed in 50 μl containing 1.5 μl of template DNA (corresponding to cDNA synthesized from 100 ng of total RNA), 1×PCR buffer, 100 μM of deoxynucleotides, 2.5 mM MgCl2, 10 mM DTT, 10 pM of Bcl-2 primers, and 2 U of Taq DNA polymerase (Gibco-BRL). The synthetic DNA primers for the rat Bcl-2 were: 5′-[…]-3′ (SEQ ID NO:8) and 5′-[…]-3′(SEQ ID NO:9) to give a PCR product of 566 bp. The sequences for synthetic GAPDH DNA primers (Wong, H., et al., Anal. Biochem. 223: 251-258 (1994)) were: 5′-[…]-3′ (SEQ ID NO:10) and 5′-[…]-3′ (SEQ ID NO:11) giving a PCR produce of 306 base pairs. Amplifications were carried out in MiniCycler (MJ Research) using following conditions: 98° C. for 5 minutes (initial heat denaturation), 3 cycles of 94° C. for 1 minute, 63° C. for 1 minute, 72° C. for 1.5 minutes; 3 cycles of 94° C. for 1 minutes, 60° C. for 1 minute, 72° C. for 1.5 minutes, followed by 72° C. for 10 minutes. Primers for GAPDH (10 pM) were added at cycle 7 by the “primer-dropping” method. Aliquots of PCR reaction products were separated by electrophoresis in 2% agarose gels (Ultrapure, Gibco-BRL), containing 0.2 μg/ml ethidium bromide. Gels were analyzed by computerized densitometric scanning using Gel doc 1000 (Bio Rad) and Molecular Analyst Software, version 2.1.

[4] = tested on: human intestinal microvascular endothelial cells (HIMEC); assay: IL-6 secretion by HIMEC (ELISA); format: cell-based
Protocol: (§1) Primary cultures of human intestinal microvascular endothelial cells (HIMEC) isolated from normal jejunal mucosa/submucosal tissue were prepared as described (Strong et al., Gastroenterology 114: 1244-1256 (1998)). The HIMEC were cultured in fibronectin-coated plasticware in MCDB medium (Sigma) supplemented with 20% FBS, 90 μg/ml heparin and 50 μg/ml endothelial cell growth factor (Sigma). T-24 cells (ATCC Accession No. HTB-4) were cultured in M199 medium supplemented with 10% FBS. PBMC were purified by Ficoll-Paque gradient as described (Current Protocols in Immunology, pp 7.1.1-7.1.2). Vero cells (ATCC Accession No. CCL-81) were grown in RPMI medium with 5% Nu serum and infected with the Silvio X-10/4 of T. cruzi as described previously (Chuenkova et al., J. Exp. Med. 181: 1693-1703, (1995)).
(§2) Endothelial cells and T-24 cells were plated on 24-well plates at a density of 1×10^3 cells/well, while peripheral blood mononuclear cells (PBMC) were plated in the similar wells at 1×10^6/well. Triplicat cultures of cells were incubated test agents for a predetermined amount of time. […] Cytokines and chemokines released in the culture supernatants were measured by ELISA assay following the instructions of the manufacturer (Endogen). The cytokines tested were IL-1β, IL-4, IL-8, IL-10, IL-12, IFN-γ, TNF-α, and the chemokines RANTES and MCP-1. Negative controls were cells incubated in medium containing polymixin B at 10 μg/ml, and positive controls were cells incubated with bacterial LPS at the low ng/ml range (for PBMC or HIMEC) or in the μg/ml range for carcinoma T-24 cells. In some experiments, IL-1β, or TNFα were used as positive control for cytokine release.

[5] = tested on: peripheral blood mononuclear cells (PBMC); assay: IL-6 secretion by PBMC (ELISA); format: cell-based, human; parameters: IL-6 secretion by PBMC: dose or concentration left out as unconfirmed
Protocol: as §1, §2
TR peptides (Table 2) were synthesized at the Tufts Synthesis Facility (Boston, Mass.). Each peptide was purified by HPLC, and the number of amino acids and molecular weight of each peptide verified by mass spectrometry. Peptides were dissolved in growth medium (10% FCS in RPMI) and added at various concentrations to 1×10^6 PBMC/well in 24-well plates. After 24 hrs, IL-6 was assayed by ELISA in the conditioned supernatants.

[6] = tested on: normal human neutrophils; assay: IL-6 production by normal human neutrophils; format: cell-based
[7] = tested on: human intestinal microvascular endothelial cells (HIMEC); assay: Other cytokines and chemokines in HIMEC supernatants (ELISA); format: cell-based; details: 24 hrs; bacterial LPS 50 ng/ml
Protocol: as §2

Row | Molecule | Akt phosphorylation in Schwann cells transfected with PTEN mutant pG129R ([1]; CD 500 ng/ml) | phospho-Akt in Schwann cells transfected with empty vector (neo) ([1]; CD 500 ng/ml) | time after which phospho-Akt not detected ([1]; CD 500 ng/ml) | time to activation of Schwann cell Akt kinase ([1]; CD 500 ng/ml) | phosphorylation/activation of Akt kinase in human Schwann cells ([1]; CD 500 ng/ml where stated, Western blot P-Akt (Ser473), listed as CD) | phospho-Akt in Schwann cells over expressing PTEN ([1]; CD 500 ng/ml, listed as CD) | concentration range at which TS was active in neurite extension [2] | time PC12 neurites remained extended ([2]; after a single dose of TS) | time until PC12 neurites became visible ([2]; after a single dose of TS) | neurite outgrowth in PC12 cells ([2]; neurite outgrowth assay, concentration not given) | neurite outgrowth in PC12 cells ([2]; soluble in serum-free RPMI-1640/0.2% BSA, collagen coated dishes, 16 hours, NGF 0.1 μg/ml, VCNA 2.4 μg/ml, TS 1 μg/ml) | bcl-2 gene expression in PC12 cells ([3]; TS 2.5 ng/ml, CNTF 50 ng/ml, alone or combined, 17 hours) | expression of Bcl-2 mRNA in PC12 cells ([3]; TS 100 and 200 ng/ml, 17 hours serum-free) | IL-6 secretion by HIMEC ([4]; 24 hrs culture) | bacterial LPS concentration inducing the same quantity of IL-6 in HIMEC ([4]; TS 1 μg/ml) | stimulation time for maximum IL-6 secretion in HIMEC ([4]; TS 1 μg/ml) | IL-6 secretion by PBMC ([5]; 24 hrs culture) | stimulation time for maximum IL-6 secretion in PBMC ([5]; TS 1 μg/ml) | IL-6 production by normal human neutrophils [6] | concentration of other cytokines (IL-1β, IL-4, IL-8, IL-10, IL-12, INF-γ, TNF-α, RANTES, MCP-1) in HIMEC supernatants [7]
1 | TS-F: recombinant full catalytic domain of TS, amino acid residues 33-666, His-tagged, expressed in E. coli (protein, listed as Trypanosoma cruzi, His tag, recombinant full catalytic domain of TS, amino acid residues 33-666, His-tagged, expressed in E. coli) ETQIAIKNSRVSSVSRVVDPTVIVKGNKLYVLVGSYYSSRSYWSSHGDARDWDILLAVGEVTKSTAGGKITASIKWGSPVSLKKFFPAEMEGMHTNQFLGGAGVAIVASNGNLVYPVQVTNKRKQVFSKIFYSEDDGKTWKFGKGRSDFGCSEPVALEWEGKLIINTRVDWKRRLVYESSDMEKPWVEAVGTVSRVWGPSPKSNQPGSQTSFTAVTIEGMRVMLFTHPLNFKGRCVRDRLNLWLTDNQRIYNVGQVSIGDENSAYSSVLYKDDKLYCLHEINTDEVYSLVFARLVGELRIIKSVLRSWKNWTATCPAFAPLLIQPLRRQRVVVVPLSPRLVLLAFCRQRLPKRMGGSYRCVNASTANAERVRNGLKFAGVGGGALWPVSQQGQNQRYRFANHAFTLVASVTIHEAPRAASPLLGASLDSSGGKKLLGLSYDEKHQWQPIYGSTPVTPTGSWETGKRYHLVLTMANKIGSVYIDGELLEGSGQTVVPDGRTPDISHFYVGGYKRSDMPTISHVTVNNVLLYNRRQLNTEEIRTLFLSQDLIGTEAHMDSSSDSSAHSTPSTPADSSAHSTPSTPVDSSAHSTPSTPADSSAHGTPSTPVDSSAHGTPSTPADSSAHGTPSTPVDS | did not detectably enhance | boosted levels of phospho-Akt | 15 min | 1 to 5 min | induced transient phosphorylation of Akt kinase | did not result in the generation of phospho-Akt; also recorded: did not induce phosphorylation of Akt kinase |  |  |  |  |  |  |  |  |  |  |  |  |  | 
2 | TS: T. cruzi trans-sialidase purified by immuno-affinity chromatography from supernatants of infected Vero cells (SEQ ID NO:2, SEQ ID NO:34) (protein, listed as Trypanosoma cruzi) MVAIADARYETSSENSLIDTVAKYSVDDGETWETQIAIKNSRVSSVSRVVDPTVIVKGNKLYVLVGSYYSSRSYWSSHGDARDWDILLAVGEVTKSTAGGKITASIKWGSPVSLKKFFPAEMEGMHTNQFLGGAGVAIVASNGNLVYPVQVTNKRKQVFSKIFYSEDDGKTWKFGKGRSDFGCSEPVALEWEGKLIINTRVDWKRRLVYESSDMEKPWVEAVGTVSRVWGPSPKSNQPGSQTSFTAVTIEGMRVMLFTHPLNFKGRCVRDRLNLWLTDNQRIYNVGQVSIGDENSAYSSVLYKDDKLYCLHEINTDEVYSLVFARLVGELRIIKSVLRSWKNWTATCPAFAPLLIQPLRRQRVVVVPLSPRLVLLAFCRQRLPKRMGGSYRCVNASTANAERVRNGLKFAGVGGGALWPVSQQGQNQRYRFANHAFTLVASVTIHEAPRAASPLLGASLDSSGGKKLLGLSYDEKHQWQPIYGSTPVTPTGSWETGKRYHLVLTMANKIGSVYIDGELLEGSGQTVVPDGRTPDISHFYVGGYKRSDMPTISHVTVNNVLLYNRRQLNTEEIRTLFLSQDLIGTEAHMDSSSDSSAHSTPSTPADSSAHSTPSTPVDSSAHSTPSTPADSSAHGTPSTPVDSSAHGTPSTPADSSAHGTPSTPVDSSAHSTPSTPVDSSAHSTPSTPVDSSAHGAPSTPADSSAHGTPSTPVDSSAHGTPSTPADSSAHSTPSTPADSSAHSTPSTPADSSAHSTPSTPVDSSAHGTPSTPADSSAHSTPSTPADSSAHGTPSTPVDSSAHSTPSTPVDSSAHGTPSTPVDSSAHSTPSTPVDSSAHGTPSTPVDSSAHSTPSTPADSSAHSTPSTPADSSAHGTPSTPVDSSAHSTPSTPADSSAHSTPSTPVDSSAHSTPSTPADSSAHGTPSTPVDSSAHGTPSTPADSSAHSTPSTPADSSAHSTPSTPADSSAHSTPSTPVDSSAHSTPSTPADSSAHSTPSTPADSSAHSTPSTPADSSAHSTPSTPVDSSAHSTPSTPADSSAHGTPSTPADSSAHSTPSTPVDSSAHSTPSTPADSSAHGTPSTPADSSAHSTPSTPADSSAHGTPSTPADSSAHSTPSTPAGSSANGTVLILPDGAALSTFSGGGLLLCACALLLHVFFMAVF |  |  |  |  |  |  | 0.125 nM | about 24 hours | 3 h | induced neurite outgrowth | induces neurite outgrowth | did not induce bcl-2 gene expression individually | dramatically increased Bcl-2 mRNA; also recorded: induces the expression of Bcl-2 mRNA | potently and specifically induced IL-6 secretion; also recorded: elevated in the conditioned supernatants in a manner dependent on the TS input | 50 ng/mL | 24 h | potently and specifically induced IL-6 secretion; also recorded: stimulated IL-6 release | 24 h | did not produce detectable IL-6 | did not increase

Reference: US8114412B2, “T. cruzi-derived neurotrophic agents and methods of use therefor” (priority 1999, dated 2012)
